According to patent US20110135573A1, “METALLOPROTEINASE 9 AND METALLOPROTEINASE 2 BINDING PROTEINS” (DYAX CORP., priority 2009, published 2011):

Experiments:
[1] = molecular target: human MMP-2 (Biomol #SE-237) (human) (UniProt P08253); experiment: Ki,app, enzyme inhibition assay (fluorogenic peptide substrate)
[2] = molecular target: Human MMP-9 catalytic domain (BIOMOL, SE-244) (human) (UniProt P14780); experiment: cell-based or functional assay
Sequence of Human MMP-9 catalytic domain (BIOMOL, SE-244) (human) (P14780 107-457 limits assumed): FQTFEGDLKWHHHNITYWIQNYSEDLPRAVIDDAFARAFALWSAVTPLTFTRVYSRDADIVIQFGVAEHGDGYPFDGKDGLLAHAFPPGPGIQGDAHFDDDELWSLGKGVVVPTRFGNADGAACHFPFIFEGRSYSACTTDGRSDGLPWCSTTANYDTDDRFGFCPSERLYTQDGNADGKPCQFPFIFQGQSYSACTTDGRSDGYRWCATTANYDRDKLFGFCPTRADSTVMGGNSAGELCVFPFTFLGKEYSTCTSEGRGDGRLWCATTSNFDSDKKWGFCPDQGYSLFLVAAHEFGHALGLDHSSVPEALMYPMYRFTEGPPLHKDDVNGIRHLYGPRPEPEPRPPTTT

Sequence of human MMP-2 (Biomol #SE-237) (human) (P08253 110-452 limits assumed): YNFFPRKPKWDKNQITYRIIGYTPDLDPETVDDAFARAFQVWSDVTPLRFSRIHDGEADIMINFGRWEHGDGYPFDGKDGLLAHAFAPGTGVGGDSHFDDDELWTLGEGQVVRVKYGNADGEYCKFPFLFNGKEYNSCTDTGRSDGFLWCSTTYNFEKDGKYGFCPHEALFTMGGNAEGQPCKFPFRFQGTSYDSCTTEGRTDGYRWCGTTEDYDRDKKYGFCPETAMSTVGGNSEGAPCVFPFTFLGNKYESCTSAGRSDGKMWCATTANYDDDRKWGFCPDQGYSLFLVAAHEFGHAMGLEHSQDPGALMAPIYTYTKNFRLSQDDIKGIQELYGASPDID

Q: “Anti-hMMP-2 R&D Systems pAb # AF902 (antibody)” was tested. Which Ki [1] did it give?
A: 6 nM

Q: “Anti-hMMP-9 R&D Systems pAb # AB911 (antibody)” was tested. Which IC50 (enzyme inhibition) [2] did it give?
A: > 500 nM
